Data on one molecule can be found in patent US20250051474A1, “ANTI-CD97 ANTIBODIES AND ANTIBODY-DRUG CONJUGATES” (New York University, priority 2023, published 2025).

For assay [1], the target named is T1, CD97 (ADGRE5) isoform 1 ectodomain, purified and biotinylated (human, UniProt P48960 21-552, limits assumed, biotinylated in vitro using the BirA enzyme).
T1 construct: the whole entry for isoform 1 is named here; also called CD97 isoform 1; Biotinylated CD97 isoform 1
T1 sequence: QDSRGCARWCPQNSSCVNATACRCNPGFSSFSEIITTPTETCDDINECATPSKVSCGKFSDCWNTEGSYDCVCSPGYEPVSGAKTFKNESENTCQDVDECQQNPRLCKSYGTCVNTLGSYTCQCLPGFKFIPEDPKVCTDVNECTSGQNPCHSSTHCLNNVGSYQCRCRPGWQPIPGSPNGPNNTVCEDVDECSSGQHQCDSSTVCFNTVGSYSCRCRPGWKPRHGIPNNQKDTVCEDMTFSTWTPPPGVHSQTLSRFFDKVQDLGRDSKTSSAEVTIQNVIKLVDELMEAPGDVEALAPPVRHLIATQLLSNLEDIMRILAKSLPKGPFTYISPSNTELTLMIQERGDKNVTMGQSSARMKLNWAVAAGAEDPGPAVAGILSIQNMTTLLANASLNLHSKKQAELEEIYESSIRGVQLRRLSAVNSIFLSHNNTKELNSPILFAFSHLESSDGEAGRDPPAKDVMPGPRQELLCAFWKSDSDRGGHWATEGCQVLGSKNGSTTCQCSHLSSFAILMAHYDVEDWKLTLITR
Description: bead-based binding titration (biotinylated antigen on streptavidin beads, flow cytometry), 1:1 fit. (A flow cytometer gives signals particle by particle.)

For assay [2], the target named is T2, CD97 (ADGRE5) isoform 2 ectodomain, purified and biotinylated (human, UniProt P48960 21-552, biotinylated in vitro using the BirA enzyme).
T2 construct: the whole entry for isoform 2 is named here; also called CD97 isoform 2
T2 sequence: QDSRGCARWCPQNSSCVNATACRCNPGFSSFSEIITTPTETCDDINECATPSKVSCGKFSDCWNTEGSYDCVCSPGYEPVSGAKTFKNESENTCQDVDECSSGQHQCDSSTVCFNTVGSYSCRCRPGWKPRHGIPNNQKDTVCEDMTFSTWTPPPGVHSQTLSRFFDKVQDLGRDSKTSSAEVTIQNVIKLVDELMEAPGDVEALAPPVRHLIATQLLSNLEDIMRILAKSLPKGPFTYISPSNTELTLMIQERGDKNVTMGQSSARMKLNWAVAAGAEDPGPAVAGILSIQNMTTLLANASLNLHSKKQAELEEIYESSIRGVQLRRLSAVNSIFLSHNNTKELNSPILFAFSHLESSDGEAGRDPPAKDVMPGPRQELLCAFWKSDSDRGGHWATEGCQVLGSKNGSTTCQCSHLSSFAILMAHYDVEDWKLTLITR
Described as above.

The next assay deals with T3, Q365A (human, UniProt P48960).
T3 construct: transiently expressed on the surface of ExpiCHO cells, gated by anti-V5 tag staining; also called CD97 GAIN mutant Q365A expressed on ExpiCHO cells
T3 sequence (receptor, looked up): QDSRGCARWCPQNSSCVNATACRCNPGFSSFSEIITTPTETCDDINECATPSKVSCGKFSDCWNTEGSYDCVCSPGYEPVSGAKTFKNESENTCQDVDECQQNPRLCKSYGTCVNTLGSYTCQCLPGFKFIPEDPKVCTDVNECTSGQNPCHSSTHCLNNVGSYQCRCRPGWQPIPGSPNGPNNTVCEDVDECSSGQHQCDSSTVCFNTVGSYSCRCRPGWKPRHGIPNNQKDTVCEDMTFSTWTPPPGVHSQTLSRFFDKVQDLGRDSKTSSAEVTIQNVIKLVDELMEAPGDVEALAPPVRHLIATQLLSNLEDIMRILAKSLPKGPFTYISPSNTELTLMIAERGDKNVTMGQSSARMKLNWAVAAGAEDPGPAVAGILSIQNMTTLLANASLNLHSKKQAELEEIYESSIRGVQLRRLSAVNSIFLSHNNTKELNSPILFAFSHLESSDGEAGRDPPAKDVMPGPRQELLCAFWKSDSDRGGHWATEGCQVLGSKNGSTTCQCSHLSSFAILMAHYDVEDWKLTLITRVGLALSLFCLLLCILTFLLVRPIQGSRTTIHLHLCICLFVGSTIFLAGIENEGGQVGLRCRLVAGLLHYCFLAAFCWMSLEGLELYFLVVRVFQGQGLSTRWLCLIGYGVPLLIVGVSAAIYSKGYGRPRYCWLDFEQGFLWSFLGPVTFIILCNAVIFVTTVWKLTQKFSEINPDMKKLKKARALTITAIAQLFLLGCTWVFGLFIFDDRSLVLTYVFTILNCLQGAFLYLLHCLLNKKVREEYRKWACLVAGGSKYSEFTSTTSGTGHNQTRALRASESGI
Description: cell-based binding assay: CD97 GAIN mutant transiently expressed on ExpiCHO cells, A8 Fab titrated, flow cytometry MFI, 1:1 fit; upper panel.

In a further assay the target is T4, R380A (human, UniProt P48960).
T4 construct: transiently expressed on the surface of ExpiCHO cells, gated by anti-V5 tag staining; also called CD97 GAIN mutant R380A expressed on ExpiCHO cells
T4 sequence (receptor, looked up): T3 sequence (receptor, looked up) with A345Q, R360A
The description is as above.

Where a chain is given by its changes, count along the chain named.

Description for Q365A: (§1) KD values were determined from the curve fitting of a 1:1 binding model.
Description for R380A: as §1

B1: Antibody clone A8, Fab format (Fab, V domains shown)
VH: EVQLVESGGGLVQPGGSLRLSCAASGFTISSYSIHWVRQAPGKGLEWVASISPYYGSTSYADSVKGRFTISADTSKNTAYLQMNSLRAEDTAVYYCARSWYYYEQNPYWYQKEEQALDYWGQGTLVTVSS
VL: DIQMTQSPSSLSASVGDRVTITCRASQSVSSAVAWYQQKPGKAPKLLIYSASSLYSGVPSRFSGSRSGTDFTLTISSLQPEDFATYYCQQSVYSPVTFGQGTKVEIKR
notes: Fab; also called wild type A8
As to B1, the dissociation constant Kd amounted to 2.4 nM in assay [1], 2.2 nM in assay [2], 56 nM with Q365A and 160 nM with R380A.

The term Kd denotes the free concentration of one partner at which half of the binding sites on the other are occupied at equilibrium, for simple one-to-one binding. Read a high Kd as a looser complex.
